Data reported in the nanobody polyreactivity screen of Harvey et al. (2022).

Test: yeast display, Sf9 membrane polyspecificity reagent, FACS + sequencing; frameworks hold sequencing errors
Summary of the method: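 Galactose-induced (36–48 hours) yeast carrying a synthetic nanobody display library were exposed to 10% biotinylated, detergent-solubilized Sf9 membrane reagent at 4 °C for 1 hour. FACS followed streptavidin microbead enrichment, using low and high (top ~1%) gates for expression (anti-HA) and reagent binding (streptavidin). Colony PCR, MiSeq 2 × 250 sequencing and CDR-length filtering followed. Labels for polyreactivity reflect the gate of origin.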

| Sequence | polyreactivity (PSR sort gate) |
| --- | --- |
| QVQLVESGGGLVQAGGSLRLSCAASGSTFALYTMGWYRQAPGKERELVAGITIDGSTNYADSVKGRFTISRDNAKNTVYLQMNSLKPEDTAVYYCNADSYKYPLLKYRSDYWGQGTQVTVSS | low polyreactivity |
| QVQLVESGGGLVQAGGSLRLSCAASGSTFANYAMGWYRQAPGKERELVAGISWRGGRTYYADSVKGRFTISRDNAKNTVYLQMNSLKPEDTAVYYCAAEVLKTRWSYDYWGQGTQVTVSS | high polyreactivity |
| QVQLVESGGGLVQAGGSLRLSCAASGSTFANYVMGWYRQAPGKEREVVAAISWTGGSTYYADSVKGRFTISRDNAKNTVYLQMHSLKPEDTAVYYCNAASYAWLWHPKSGLYDYWGQGTQVTVSS | low polyreactivity |
| QVQLVESGGGLVQAGGSLRLSCAASGSTFAPNAMGWYRQAPGKERELVAAISSGGDSTNYADYVKGRFTISRDNAKNTVYLQMNSLKPEDTAVYYCAHGYCFVAYDYWGQGTQVTVSS | low polyreactivity |
| QVQLVESGGGLVQAGGSLRLSCAASGSTFAQNAMGWYRQAPGKEREYVAAITGTVGSTYYADSVKGRFTISRDNAKNTVYLQMNSLKPEDTAVYYCNTRGFNGRVYPYDYWGQGTQVTVSS | low polyreactivity |
| QVQLVESGGGLVQAGGSLRLSCAASGSTFAQYAMGWYRQAPGKEREFVAAITRGGGRTYYADSVKGRFTISRDNAKNSVYLQMNSLKPEDTAVYYCNAVYRYYPFDYWGQGTQVTVSS | high polyreactivity |
| QVQLVESGGGLVQAGGSLRLSCAASGSTFAQYAMGWYRQPPRKERELVAAISRRGASTYYADSVKGLFTISRDIAKNTVYLQMNSLKPEDTAVYYCNAVRGEKMGYWGQGTQVTVSS | high polyreactivity |
| QVQLVESGGGLVQAGGSLRLSCAASGSTFARNARGWYRQAPGKERELVAAITTRGSSTYYADSVKGRFTISRDNAKNTVYLQMHSLKPEDTAVYYCAADSRRSWYWGGYRQTGMGYWGQGTQVTVSS | high polyreactivity |
| QVQLVESGGGLVQAGGSLRLSCAASGSTFARYAMGWYRHAPGKETELVAGIWNTGRTYYADSVKGRFTISRDNAKNTVYLQMNSLKPEDTAVYYCAALYNSPNVTYYYWGQGTQVTVSS | high polyreactivity |
| QVQLVESGGGLVQAGGSLRLSCAASGSTFARYAMGWYRPAPGKERELVAVIRSGGSTNYADSVKGRFTISRDNAKNTVYLQMNSLKPEDTAGAADQWTIHRWATYGYWGQGTQVTVSS | low polyreactivity |
| QVQLVESGGGLVQAGGSLRLSCAASGSTFARYAMGWYRQAPGKERELVAAISKGGDRTYYADSVKGRFTISRDNAKNTVYLQMNSLKPEDTAVYYCAARYTPRRYYYWGQGTQVTVSS | high polyreactivity |
| QVQLVESGGGLVQAGGSLRLSCAASGSTFARYAMGWYRQAPGKERELVASITQSSGSTYYADSVKGRFTISRDNAKSTVYLQMNSLKPEDTAVYYCAKVISYGPVPDRYDYWGQGTQVTVSS | high polyreactivity |
| QVQLVESGGGLVQAGGSLRLSCAASGSTFARYAMGWYRQAPGKERELVAVITRSGGSTYYADSVKGRFTISRDNAKNTVYLQMNSLKPEDTDVYYCNKYGYKGGVGYDYWGQGTQVTVSS | high polyreactivity |
| QVQLVESGGGLVQAGGSLRLSCAASGSTFASNAMGWYRQAPGKERELVAAITSRDASTYYADSVKGRFTISRDNAKNTVYLQMNSLKPEDTAVYYCATDGYSPAAFDYWGQGTQVTVSS | low polyreactivity |
| QVQLVESGGGLVQAGGSLRLSCAASGSTFASYAMGWYIQAPGKERELVAAITDSGGSTYYADSVKGRFTISRDNAKNTVYLQMNSLKPEDTAVYYCAAYGPYFSYHDYDYWGQGTQVTVSS | low polyreactivity |
| QVQLVESGGGLVQAGGSLRLSCAASGSTFASYAMGWYRQAPGKERELVAAIRWRGGTTYYADSVKGRFTISRDNAKNTVNLQMNSLKPEDTAVYYCNADRYYLYYFWGQGTQVTVSS | low polyreactivity |
| QVQLVESGGGLVQAGGSLRLSCAASGSTFATDAMGWYRQAPGTERELVAVISRSGGSTYYADSVKGRFTISRDNAKNTVYLQMNSLKPEDTAVYYCAARLVNKSRWGTLRYDYWGQGTQVTVSS | high polyreactivity |
| QVQLVESGGGLVQAGGSLRLSCAASGSTFATNAMGWYRQAPGKERELVAAIRRGGGTYYADSVKGRFTISRDNAKNTVYLQMNSLKPEDTAVYYCAALYGGRRPYEYWGQGTQVTVSS | high polyreactivity |
| QVQLVESGGGLVQAGGSLRLSCAASGSTFATNTLGWYRQAPGKERELVAAISRGTSTKYADSVKGRFTISRDNAKNTVYLQMTCLKPEDTAVSYCNAVSRDKSLYDYWGQGTQVTVSS | high polyreactivity |
| QVQLVESGGGLVQAGGSLRLSCAASGSTFATYAMGWYRQAPGKERELVAAISKSGGSTYYADSVKGRFTISRDNAKNTVYLQMNSLKPEDTAVYYCAAVGPYRWYDYWGQGTQVTVSS | high polyreactivity |
| QVQLVESGGGLVQAGGSLRLSCAASGSTFATYAMGWYRQAPGKERELVAAITLRGGRTYYADSVKGRFTISRDNAKNTVYLQMNSLKPEDTAVYYCAAEYYYLSFGLTWWRGFDYWGQGTQVTVSS | high polyreactivity |
| QVQLVESGGGLVQAGGSLRLSCAASGSTFATYAMGWYRQAPGKERELVAVITRGGRTYYADSVKGRFTISRDNAKNTVYLQMNSLKPEDTAVYYCAAKAYTYYARIGFDYCGQGTQVTVSS | high polyreactivity |

| Sequence | polyreactivity (PSR sort gate) |
| --- | --- |
| QVQLVESGGGLVQAGGSLRLSCAASGSTFAVNAMGWYRQAPGKEREFVASIRGSGGRTSYADSVKGRFTISRDNAKNTVYLQMNCLKPEDTAVYYCAARYVGGTWRSGRYPRSDYWGQGTQVTVSS | high polyreactivity |
| QVQLVESGGGLVQAGGSLRLSCAASGSTFAVYAMGWYRQAPGKERELVATITGSGGSTYYADSVKGRFTISRDNAKNTVYLEMNSLKPEDTAVYYCAAEVVAWSLYEDFKTYDYWGQGTQVTVSS | low polyreactivity |
| QVQLVESGGGLVQAGGSLRLSCAASGSTFAVYAMGWYRQPPGKERELVAAITWSGGSTYYADSVKGRFTISRDNAKNTVYLQMNSLKPEDTAVYYCAAVVVRFIYVYFEFEWGQGTQVTVSS | low polyreactivity |
| QVQLVESGGGLVQAGGSLRLSCAASGSTFAWNAMGWYIQAPGKERELVAAISYSGGTTYYADSVKGRFTISRDNAKNTVYLQMNSLKPEDTAVYYCAKWEGHGRNPWGAGTEGDYWGQGTQVTVSS | low polyreactivity |
| QVQLVESGGGLVQAGGSLRLSCAASGSTFAWYAMGWYRQAPGKERELVAAISSTVGSTYYADSVKGRFTISRDNAKNTVYLQLKSLKPEDTAVYYCARYYYRYYIRQLALGASTYDYWGQGTQVTVSS | high polyreactivity |
| QVQLVESGGGLVQAGGSLRLSCAASGSTFAYYAMGLYRQAPGKERELVASISWRGGSTYYADSVKGRFTISRDNAKNTVYLQMNSLKPEVTAVYYCAAGRFYKWSRSQEYDYWGQGTQVTVSS | low polyreactivity |
| QVQLVESGGGLVQAGGSLRLSCAASGSTFAYYAMGWSRQAPGKERELVASISWRGGSTYYADSVKGRFTNSRDNAKNTVYLQMNSLKPEDTAVYYCAAGRFYIWSRSQEYDYWGQGTQVTVSS | low polyreactivity |
| QVQLVESGGGLVQAGGSLRLSCAASGSTFAYYAMGWYRQAPGKERELVAAISVSGGRTYYADSVKGRFTISRDNAKNTVYLQMNSLKPEDTAVYYCAARLWRDYYWGQGTQVTVSS | high polyreactivity |
| QVQLVESGGGLVQAGGSLRLSCAASGSTFAYYAMGWYRQAPGKERELVAAISWSGGSTYYADSVKGRFTISRDNAKNTVYLQLNSLKPEDTAVYYCAAGVPSTFQYSYWDYNYWGQGTQVTVSS | low polyreactivity |
| QVQLVESGGGLVQAGGSLRLSCAASGSTFAYYAMGWYRQAPGKERELVAAITSSGGSTYYADSVKGRFTISRDNAKNTVYLQMNSLKPEDTAVYYCNARYRRKSWRPFDYWGQGTQVTVSS | high polyreactivity |
| QVQLVESGGGLVQAGGSLRLSCAASGSTFAYYARGWYRQAPGKERELVASISWRGGSTYYADSVKGRFTISRDNAKNTVYLQMNSLKPEDTAFYYCAAGRFYKWSRSQEYDYWGQGTQVTVSS | low polyreactivity |
| QVQLVESGGGLVQAGGSLRLSCAASGSTFCRNAMGWYRQAPGKEREFVAVISISSGTTYADSVKGRFTISRDNAKNTVYLQMNSVKPVDTAVYYCAAAIGVYYIDYRYLGTVEYWGQGTQVNVSS | low polyreactivity |
| QVQLVESGGGLVQAGGSLRLSCAASGSTFDANAMGWYRQAPGKERELVAAITSNGGSTYYADSVKGRFTISRDNAKNTVYLQMNSLKPEDTAVYYCDTEQHTVQDYDYWGQGTQVTVSS | low polyreactivity |
| QVQLVESGGGLVQAGGSLRLSCAASGSTFDANAMGWYRQAPGKERELVADITVRDGSTYYADSVKGRFTISRDNAKNTVYLQMNSLKPEDTAVYYCNAGRYTGGYSPGYGYWGLGTQVTVSS | low polyreactivity |
| QVQLVESGGGLVQAGGSLRLSCAASGSTFDAYAMGWYRQAPGKDRELVAGISSGGSYEYADSVKGRFTISRDNAKNTVYLQMNSLIPEDTAVYYCAADSRQSVYYYQPTKFDYWGQGSQVTVSS | low polyreactivity |
| QVQLVESGGGLVQAGGSLRLSCAASGSTFDFYAMGWYRQAPGKERELVARISSGGGRTYYADSVKGRFTISRDNAKNTVYLQLNSLKPEDTAVYYCATDYPWIFGHFLMDYWGQGTQVTVSS | low polyreactivity |
| QVQLVESGGGLVQAGGSLRLSCAASGSTFDGNAMGWYRQAPGKERELDAAISWNSGSTYYADSVKGRFTISRDNAKNTVYLQMNSLKPEDTAVYYCAATYGTGRRSKYGYWGQGTQVTVSS | high polyreactivity |
| QVQLVESGGGLVQAGGSLRLSCAASGSTFDGYAMGWSRQAPGKERELVGSITRRGGSTYYADSVKGRFTISRDNAKNTVYVQMNSLKPEDTAVYYCAVLGRGVSGYTWPYDYWGQGTQVTVSS | high polyreactivity |
| QVQLVESGGGLVQAGGSLRLSCAASGSTFDGYAMGWYRPAPGKERELVAGISTSGGSTYYADSVKGRFTISRDNAKNTVYLQMNSLKPEDSAVYYCAAEWFDQVKDPAADYISYEYWGQGTQVTVSS | low polyreactivity |
| QVQLVESGGGLVQAGGSLRLSCAASGSTFDGYAMGWYRQAPAKERELVAAISRSGGRTYYADSVNGRFTISRDNAKITVYLQMNSLKPEDTAFYYCAAMYTYKREDYWGQGTQVTVSS | high polyreactivity |
| QVQLVESGGGLVQAGGSLRLSCAASGSTFDGYAMGWYRQAPGKERELVAAITSSSTSTYYADSVKGRFTISRDNAKNTVYLQMNSLKPEDTAVYYCAAQYFSYISVYSFYTMGYWGQGTQVTVSS | low polyreactivity |
